Experimental findings from patent US20090291890A1 (published 2009) are described below.

The target of experiment [1] is Factor X (Homo sapiens (Human)) (UniProt P00742).
The target of experiment [2] is T1, Mesyl-dFPR-ACC.
T1 sequence (peptide, N-terminal mesyl; D-Phe at position 1 (dF); C-terminal ACC fluorophore): FPR

Chain of Factor X (Homo sapiens (Human)) (P00742 41-488 limits assumed): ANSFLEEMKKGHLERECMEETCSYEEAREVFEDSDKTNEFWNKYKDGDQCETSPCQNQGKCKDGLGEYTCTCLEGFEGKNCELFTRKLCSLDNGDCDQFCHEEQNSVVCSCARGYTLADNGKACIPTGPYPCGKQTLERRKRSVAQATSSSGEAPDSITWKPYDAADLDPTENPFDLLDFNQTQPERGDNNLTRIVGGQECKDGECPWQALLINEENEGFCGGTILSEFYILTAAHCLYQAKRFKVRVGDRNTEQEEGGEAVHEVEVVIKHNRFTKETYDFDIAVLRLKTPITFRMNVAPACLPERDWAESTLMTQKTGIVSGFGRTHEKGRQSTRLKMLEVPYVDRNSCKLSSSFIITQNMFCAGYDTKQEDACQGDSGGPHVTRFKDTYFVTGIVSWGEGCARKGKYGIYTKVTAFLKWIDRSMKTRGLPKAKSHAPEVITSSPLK

B1: S222A/T239V-FVIIa (enzyme)
chain: ANAFLEELRPGSLERECKEEQCSFEEAREIFKDAERTKLFWISYSDGDQCASSPCQNGGSCKDQLQSYICFCLPAFEGRNCETHKDDQLICVNENGGCEQYCSDHTGTKRSCRCHEGYSLLADGVSCTPTVEYPCGKIPILEKRNASKPQGRIVGGKVCPKGECPWQVLLLVNGAQLCGGTLINTIWVVSAAHCFDKIKNWRNLIAVLGEHDLSEHDGDEQARRVAQVIIPSTYVPGTVNHDIALLRLHQPVVLTDHVVPLCLPERTFSERTLAFVRFSLVSGWGQLLDRGATALELMVLNVPRLMTQDCLQQSRKVGDSPNITEYMFCAGYSDGSKDSCKGDSGGPHATHYRGTWYLTGIVSWGQGCATVGHFGVYTRVSQYIEWLQKLMRSEPRPGVLLRAPFP
As for B1, in experiment [1], the kcat/KM (M^-1s^-1), TF-dependent assay came out at 7.49e+07 M⁻¹ s⁻¹ and the kcat/KM, TF-independent assay stood at 3 M⁻¹ s⁻¹. In experiment [2], this molecule displayed an Activity (µmol/sec/µmol), specific activity for mesyl-dFPR-ACC (µmol/sec/µmol) of 1.91.

B2: T239V/Q286R/H373F-FVIIa (enzyme)
chain: ANAFLEELRPGSLERECKEEQCSFEEAREIFKDAERTKLFWISYSDGDQCASSPCQNGGSCKDQLQSYICFCLPAFEGRNCETHKDDQLICVNENGGCEQYCSDHTGTKRSCRCHEGYSLLADGVSCTPTVEYPCGKIPILEKRNASKPQGRIVGGKVCPKGECPWQVLLLVNGAQLCGGTLINTIWVVSAAHCFDKIKNWRNLIAVLGEHDLSEHDGDEQSRRVAQVIIPSTYVPGTVNHDIALLRLHQPVVLTDHVVPLCLPERTFSERTLAFVRFSLVSGWGRLLDRGATALELMVLNVPRLMTQDCLQQSRKVGDSPNITEYMFCAGYSDGSKDSCKGDSGGPHATHYRGTWYLTGIVSWGQGCATVGFFGVYTRVSQYIEWLQKLMRSEPRPGVLLRAPFP
For the molecule B2, in experiment [1], the kcat/KM (M^-1s^-1), TF-dependent assay worked out at 1.06e+08 M⁻¹ s⁻¹ and the kcat/KM, TF-independent assay was 12.2 M⁻¹ s⁻¹. Also, the Activity (µmol/sec/µmol), specific activity for mesyl-dFPR-ACC (µmol/sec/µmol) in experiment [2] turned out to be 1.53.

B3: V158D/T239I/E296V/M298Q-FVIIa (enzyme)
chain: ANAFLEELRPGSLERECKEEQCSFEEAREIFKDAERTKLFWISYSDGDQCASSPCQNGGSCKDQLQSYICFCLPAFEGRNCETHKDDQLICVNENGGCEQYCSDHTGTKRSCRCHEGYSLLADGVSCTPTVEYPCGKIPILEKRNASKPQGRIVGGKDCPKGECPWQVLLLVNGAQLCGGTLINTIWVVSAAHCFDKIKNWRNLIAVLGEHDLSEHDGDEQSRRVAQVIIPSTYVPGTINHDIALLRLHQPVVLTDHVVPLCLPERTFSERTLAFVRFSLVSGWGQLLDRGATALVLQVLNVPRLMTQDCLQQSRKVGDSPNITEYMFCAGYSDGSKDSCKGDSGGPHATHYRGTWYLTGIVSWGQGCATVGHFGVYTRVSQYIEWLQKLMRSEPRPGVLLRAPFP
Turning to B3, in experiment [1], the kcat/KM (M^-1s^-1), TF-dependent assay was found to be 1.45e+08 M⁻¹ s⁻¹ and the kcat/KM, TF-independent assay came to 216 M⁻¹ s⁻¹. In experiment [2], this molecule gave an Activity (µmol/sec/µmol), specific activity for mesyl-dFPR-ACC (µmol/sec/µmol) of 2.24.

B4: T239V/Q286R/M298Q/H373F-FVIIa (enzyme)
chain: ANAFLEELRPGSLERECKEEQCSFEEAREIFKDAERTKLFWISYSDGDQCASSPCQNGGSCKDQLQSYICFCLPAFEGRNCETHKDDQLICVNENGGCEQYCSDHTGTKRSCRCHEGYSLLADGVSCTPTVEYPCGKIPILEKRNASKPQGRIVGGKVCPKGECPWQVLLLVNGAQLCGGTLINTIWVVSAAHCFDKIKNWRNLIAVLGEHDLSEHDGDEQSRRVAQVIIPSTYVPGTVNHDIALLRLHQPVVLTDHVVPLCLPERTFSERTLAFVRFSLVSGWGRLLDRGATALELQVLNVPRLMTQDCLQQSRKVGDSPNITEYMFCAGYSDGSKDSCKGDSGGPHATHYRGTWYLTGIVSWGQGCATVGFFGVYTRVSQYIEWLQKLMRSEPRPGVLLRAPFP
For B4, in experiment [1], the kcat/KM (M^-1s^-1), TF-dependent assay turned out to be 1.7e+08 M⁻¹ s⁻¹ and the kcat/KM, TF-independent assay worked out at 40.7 M⁻¹ s⁻¹. The molecule also had an Activity (µmol/sec/µmol), specific activity for mesyl-dFPR-ACC (µmol/sec/µmol) in experiment [2] of 3.07.
